Data as given in patent US20240124553A1.

Columns and labels:
Assay in all cases: flow cytometry, transfected 293T cells
[1] = target: CHIKV E2-E1 envelope glycoproteins (strain S27), E2 mutant S61A (chikungunya virus strain S27) (UniProt Q8JUX5)
[2] = target: CHIKV E2-E1 envelope glycoproteins (strain S27), E2 mutant T92A (chikungunya virus strain S27) (UniProt Q8JUX5)
[3] = target: CHIKV E2-E1 envelope glycoproteins (strain S27), E2 mutant F84A (chikungunya virus strain S27) (UniProt Q8JUX5)
[4] = target: CHIKV E2-E1 envelope glycoproteins (strain S27), E2 mutant P75A (chikungunya virus strain S27) (UniProt Q8JUX5)
[5] = target: CHIKV E2-E1 envelope glycoproteins (strain S27), E2 mutant H127A (chikungunya virus strain S27) (UniProt Q8JUX5)
[6] = target: CHIKV E2-E1 envelope glycoproteins (strain S27), E2 mutant G79A (chikungunya virus strain S27) (UniProt Q8JUX5)
[7] = target: CHIKV E2-E1 envelope glycoproteins (strain S27), E2 mutant L46A (chikungunya virus strain S27) (UniProt Q8JUX5)
[8] = target: CHIKV E2-E1 envelope glycoproteins (strain S27), E2 mutant G82A (chikungunya virus strain S27) (UniProt Q8JUX5)
[9] = target: CHIKV E2-E1 envelope glycoproteins (strain S27), E2 mutant L67A (chikungunya virus strain S27) (UniProt Q8JUX5)
[10] = target: CHIKV E2-E1 envelope glycoproteins (strain S27), E2 mutant K47A (chikungunya virus strain S27) (UniProt Q8JUX5)
[11] = target: CHIKV E2-E1 envelope glycoproteins (strain S27), E2 mutant A41S (chikungunya virus strain S27) (UniProt Q8JUX5)
[12] = target: CHIKV E2-E1 envelope glycoproteins (strain S27), E2 mutant F100A (chikungunya virus strain S27) (UniProt Q8JUX5)
[13] = target: CHIKV E2-E1 envelope glycoproteins (strain S27), E2 mutant T58A (chikungunya virus strain S27) (UniProt Q8JUX5)
[14] = target: CHIKV E2-E1 envelope glycoproteins (strain S27), E2 mutant D132A (chikungunya virus strain S27) (UniProt Q8JUX5)
[15] = target: CHIKV E2-E1 envelope glycoproteins (strain S27), E2 mutant V85A (chikungunya virus strain S27) (UniProt Q8JUX5)
[16] = target: CHIKV E2-E1 envelope glycoproteins (strain S27), E2 mutant T112A (chikungunya virus strain S27) (UniProt Q8JUX5)
[17] = target: CHIKV E2-E1 envelope glycoproteins (strain S27), E2 mutant R80A (chikungunya virus strain S27) (UniProt Q8JUX5)
[18] = target: CHIKV E2-E1 envelope glycoproteins (strain S27), E2 mutant G95A (chikungunya virus strain S27) (UniProt Q8JUX5)
[19] = target: CHIKV E2-E1 envelope glycoproteins (strain S27), E2 mutant E109A (chikungunya virus strain S27) (UniProt Q8JUX5)
[20] = target: CHIKV E2-E1 envelope glycoproteins (strain S27), E2 mutant K107A (chikungunya virus strain S27) (UniProt Q8JUX5)
[21] = target: CHIKV E2-E1 envelope glycoproteins (strain S27), E2 mutant C91A (chikungunya virus strain S27) (UniProt Q8JUX5)
[22] = target: CHIKV E2-E1 envelope glycoproteins (strain S27), E2 mutant R36A (chikungunya virus strain S27) (UniProt Q8JUX5)
[23] = target: CHIKV E2-E1 envelope glycoproteins (strain S27), E2 mutant R38A (chikungunya virus strain S27) (UniProt Q8JUX5)
[24] = target: CHIKV E2-E1 envelope glycoproteins (strain S27), E2 mutant M97A (chikungunya virus strain S27) (UniProt Q8JUX5)
[25] = target: CHIKV E2-E1 envelope glycoproteins (strain S27), E2 mutant T42A (chikungunya virus strain S27) (UniProt Q8JUX5)
[26] = target: CHIKV E2-E1 envelope glycoproteins (strain S27), E2 mutant E40A (chikungunya virus strain S27) (UniProt Q8JUX5)
[27] = target: CHIKV E2-E1 envelope glycoproteins (strain S27), E2 mutant P133A (chikungunya virus strain S27) (UniProt Q8JUX5)
[28] = target: CHIKV E2-E1 envelope glycoproteins (strain S27), E2 mutant H99A (chikungunya virus strain S27) (UniProt Q8JUX5)
[29] = target: CHIKV E2-E1 envelope glycoproteins (strain S27), E2 mutant G98A (chikungunya virus strain S27) (UniProt Q8JUX5)
[30] = target: CHIKV E2-E1 envelope glycoproteins (strain S27), E2 mutant I93A (chikungunya virus strain S27) (UniProt Q8JUX5)
[31] = target: CHIKV E2-E1 envelope glycoproteins (strain S27), E2 mutant H123A (chikungunya virus strain S27) (UniProt Q8JUX5)
[32] = target: CHIKV E2-E1 envelope glycoproteins (strain S27), E2 mutant K120A (chikungunya virus strain S27) (UniProt Q8JUX5)
[33] = target: CHIKV E2-E1 envelope glycoproteins (strain S27), E2 mutant H62A (chikungunya virus strain S27) (UniProt Q8JUX5)

| Substance | Binding Reactivity (% WT) [1] [% WT] | Binding Reactivity (% WT) [2] [% WT] | Binding Reactivity (% WT) [3] [% WT] | Binding Reactivity (% WT) [4] [% WT] | Binding Reactivity (% WT) [5] [% WT] | Binding Reactivity (% WT) [6] [% WT] | Binding Reactivity (% WT) [7] [% WT] | Binding Reactivity (% WT) [8] [% WT] | Binding Reactivity (% WT) [9] [% WT] | Binding Reactivity (% WT) [10] [% WT] | Binding Reactivity (% WT) [11] [% WT] | Binding Reactivity (% WT) [12] [% WT] | Binding Reactivity (% WT) [13] [% WT] | Binding Reactivity (% WT) [15] [% WT] | Binding Reactivity (% WT) [16] [% WT] | Binding Reactivity (% WT) [17] [% WT] | Binding Reactivity (% WT) [18] [% WT] | Binding Reactivity (% WT) [19] [% WT] | Binding Reactivity (% WT) [20] [% WT] | Binding Reactivity (% WT) [21] [% WT] | other results |
| --- | --- | --- | --- | --- | --- | --- | --- | --- | --- | --- | --- | --- | --- | --- | --- | --- | --- | --- | --- | --- | --- |
| CHIKV mAb C9 (antibody) | 93.1 | 96 | 76.2 | 98.5 | 92.4 | 81.4 | 1.7 | 90.2 | 60.9 | 84 | 70.7 | 34.2 | 98.6 | 77.8 | 50.5 | 68.8 | 86.2 | 109 | 95.6 | 0.6 | Binding Reactivity (% WT) [14]: 94.4 % WT; Binding Reactivity (% WT) [22]: 75.4 % WT; Binding Reactivity (% WT) [23]: 86.3 % WT; Binding Reactivity (% WT) [24]: 76.3 % WT; Binding Reactivity (% WT) [25]: 102 % WT; Binding Reactivity (% WT) [26]: 107 % WT; Binding Reactivity (% WT) [27]: 87.2 % WT; Binding Reactivity (% WT) [28]: 57.4 % WT; Binding Reactivity (% WT) [29]: 102 % WT; Binding Reactivity (% WT) [30]: 10.4 % WT; Binding Reactivity (% WT) [31]: 53.6 % WT; Binding Reactivity (% WT) [32]: 15.4 % WT; Binding Reactivity (% WT) [33]: 93.1 % WT |
| CHIKV mAb CHKV-88 (antibody) | 105 | 109 | 83.9 | 115 | 91 | 121 | 23.6 | 91.5 | 84.6 | 100 | 89.8 | 69.1 | 81.2 | 75.9 | 71.6 | 128 | 89 | 124 | 99.2 | 4 | Binding Reactivity (% WT) [14]: 120 % WT; Binding Reactivity (% WT) [22]: 83.8 % WT; Binding Reactivity (% WT) [23]: 99.6 % WT; Binding Reactivity (% WT) [24]: 85.1 % WT; Binding Reactivity (% WT) [25]: 112 % WT; Binding Reactivity (% WT) [26]: 108 % WT; Binding Reactivity (% WT) [27]: 92.3 % WT; Binding Reactivity (% WT) [28]: 85.6 % WT; Binding Reactivity (% WT) [29]: 106 % WT; Binding Reactivity (% WT) [30]: 29.1 % WT; Binding Reactivity (% WT) [31]: 61.5 % WT; Binding Reactivity (% WT) [32]: 82.3 % WT; Binding Reactivity (% WT) [33]: 101 % WT |
| Mxra8-Fc (mouse Mxra8 extracellular domain fused to mouse IgG2b Fc) (Fc fusion) | 116 | 98.6 | 77.6 | 86.7 | 78 | 94.6 | 4.8 | 123 | 77.4 | 102 | 4.9 | 26.2 | 94.1 | 84.6 | 44.2 | 131 | 94.6 | 97.4 | 84.6 | 1 | Binding Reactivity (% WT) [23]: 90.7 % WT; Binding Reactivity (% WT) [24]: 95.1 % WT; Binding Reactivity (% WT) [25]: 95.7 % WT; Binding Reactivity (% WT) [26]: 86.2 % WT; Binding Reactivity (% WT) [27]: 81.3 % WT; Binding Reactivity (% WT) [28]: 58.1 % WT; Binding Reactivity (% WT) [29]: 102 % WT; Binding Reactivity (% WT) [30]: 14.6 % WT; Binding Reactivity (% WT) [31]: 33.6 % WT; Binding Reactivity (% WT) [32]: 1.8 % WT; Binding Reactivity (% WT) [33]: 102 % WT |
